From patent US20190119318A1
Values belong to the substance of their own block, whether it stands above or below them.

Experiments:
[1] = target: human polyclonal IgG (Gammanorm) (human); experiment: SPR; after 100 CIP cycles 0.5 M NaOH
[2] = target: human polyclonal IgG (Gammanorm) (human); experiment: SPR; vs reference Zvar2; 0.5 M NaOH
[3] = target: human polyclonal IgG (Gammanorm) (human); experiment: column DBC; ligand […]; after 6 x 4 h 0.5 M NaOH
[4] = target: human polyclonal IgG (Gammanorm) (human); experiment: column DBC; vs reference Zvar4; 1.0 M NaOH
[5] = target: human polyclonal IgG (Gammanorm) (human); experiment: column DBC; ligand […]; after 6 x 4 h 1.0 M NaOH
[6] = target: human polyclonal IgG (Gammanorm) (human); experiment: column DBC; ligand 7.2 mg/ml; after 6 x 4 h 0.5 M NaOH
[7] = target: human polyclonal IgG (Gammanorm) (human); experiment: column DBC, 6 min residence; agarose beads; ligand […]
[8] = target: human polyclonal IgG (Gammanorm) (human); experiment: column DBC; vs reference Zvar4; 0.5 M NaOH
[9] = target: human polyclonal IgG (Gammanorm) (human); experiment: column DBC, 6 min residence; agarose beads; ligand 7.2 mg/ml
[10] = target: human polyclonal IgG (Gammanorm) (human); experiment: column DBC, 6 min residence; agarose beads; ligand […]; remark: listed apart in the source
[11] = target: human polyclonal IgG (Gammanorm) (human); experiment: column DBC; base H31; ligand […]
[12] = target: human polyclonal IgG (Gammanorm) (human); experiment: column DBC; base A63b; ligand 16.7 mg/ml
[13] = target: human polyclonal IgG (Gammanorm) (human); experiment: column DBC; base A38; ligand 11.6 mg/ml
[14] = target: human polyclonal IgG (Gammanorm) (human); experiment: column DBC; base P10; ligand 19.0 mg/ml
[15] = target: human polyclonal IgG (Gammanorm) (human); experiment: column DBC; base A38; ligand […]
[16] = target: human polyclonal IgG (Gammanorm) (human); experiment: column DBC; base A56; ligand 19.2 mg/ml
[17] = target: human polyclonal IgG (Gammanorm) (human); experiment: column DBC; base H31; ligand 20.0 mg/ml
[18] = target: human polyclonal IgG (Gammanorm) (human); experiment: column DBC; base A20; ligand […]
[19] = target: human polyclonal IgG (Gammanorm) (human); experiment: column DBC; base H40; ligand 23.0 mg/ml
[20] = target: human polyclonal IgG (Gammanorm) (human); experiment: column DBC; base A62a; ligand […]
[21] = target: human polyclonal IgG (Gammanorm) (human); experiment: column DBC; base A38; ligand 15.8 mg/ml
[22] = target: human polyclonal IgG (Gammanorm) (human); experiment: column DBC; base C4; ligand 11.2 mg/ml
[23] = target: human polyclonal IgG (Gammanorm) (human); experiment: column DBC; base A33; ligand […]; conditions: ligand content 6.5 mg/ml
[24] = target: human polyclonal IgG (Gammanorm) (human); experiment: column DBC; base A56-2; ligand 19.2 mg/ml
[25] = target: human polyclonal IgG (Gammanorm) (human); experiment: column DBC; base C3; ligand 11.9 mg/ml
[26] = target: human polyclonal IgG (Gammanorm) (human); experiment: column DBC; base A56; ligand […]; conditions: ligand content 7.1 mg/ml
[27] = target: human polyclonal IgG (Gammanorm) (human); experiment: column DBC; base A56; ligand 7.9 mg/ml
[28] = target: human polyclonal IgG (Gammanorm) (human); experiment: column DBC; base S9; ligand 18.4 mg/ml
[29] = target: human polyclonal IgG (Gammanorm) (human); experiment: column DBC; base C3; ligand 15.1 mg/ml
[30] = target: human polyclonal IgG (Gammanorm) (human); experiment: column DBC; base A56-2; ligand […]
[31] = target: human polyclonal IgG (Gammanorm) (human); experiment: column DBC; base C4; ligand 15.2 mg/ml
[32] = target: human polyclonal IgG (Gammanorm) (human); experiment: column DBC; base H40; ligand […]; conditions: ligand content 6.9 mg/ml
[33] = target: human polyclonal IgG (Gammanorm) (human); experiment: column DBC; base H35; ligand […]
[34] = target: human polyclonal IgG (Gammanorm) (human); experiment: column DBC; base A56; ligand 15.2 mg/ml
[35] = target: human polyclonal IgG (Gammanorm) (human); experiment: column DBC; base A63b; ligand 10.6 mg/ml
[36] = target: human polyclonal IgG (Gammanorm) (human); experiment: column DBC; base A20; ligand 21.1 mg/ml
[37] = target: human polyclonal IgG (Gammanorm) (human); experiment: column DBC; base A63b; ligand 6.4 mg/ml
[38] = target: human polyclonal IgG (Gammanorm) (human); experiment: column DBC; base A54; ligand 21.1 mg/ml
[39] = target: human polyclonal IgG (Gammanorm) (human); experiment: SPR; vs reference Zvar6; 0.5 M NaOH
[40] = target: human polyclonal IgG (Gammanorm) (human); experiment: column DBC; base A56-2; ligand 12.5 mg/ml
[41] = target: human polyclonal IgG (Gammanorm) (human); experiment: column DBC; base A20; ligand 6.4 mg/ml
[42] = target: human polyclonal IgG (Gammanorm) (human); experiment: column DBC; base C3; ligand […]
[43] = target: human polyclonal IgG (Gammanorm) (human); experiment: column DBC; base A54; ligand […]; conditions: ligand content 6.7 mg/ml
[44] = target: human polyclonal IgG (Gammanorm) (human); experiment: column DBC; base A62a; ligand 9.6 mg/ml
[45] = target: human polyclonal IgG (Gammanorm) (human); experiment: column DBC; base H35; ligand 20.3 mg/ml
[46] = target: human polyclonal IgG (Gammanorm) (human); experiment: column DBC; base H35; ligand 12.3 mg/ml
[47] = target: human polyclonal IgG (Gammanorm) (human); experiment: SPR; after 100 CIP cycles 1 M NaOH
[48] = target: human polyclonal IgG (Gammanorm) (human); experiment: SPR; after 200 CIP cycles 0.5 M NaOH
[49] = target: human polyclonal IgG (Gammanorm) (human); experiment: SPR; vs reference Zvar4; 0.5 M NaOH
[50] = target: human polyclonal IgG (Gammanorm) (human); experiment: SPR; after 300 CIP cycles 0.5 M NaOH
[51] = target: human polyclonal IgG (Gammanorm) (human); experiment: SPR; vs reference Zvar4; 1 M NaOH
[52] = target: human polyclonal IgG (Gammanorm) (human); experiment: column DBC; ligand 10.8 mg/ml; after 6 x 4 h 0.5 M NaOH
[53] = target: human polyclonal IgG (Gammanorm) (human); experiment: column DBC, 6 min residence; agarose beads; ligand 10.8 mg/ml

Substance: Zvar(Q9A,N11E,Q40V,A42K,N43A,L44I)2 with YEDG inserted in linker between K58 and V1 (designed binder)
remaining capacity 100 cycles [1]: 72%
capacity relative to ref. 100 cycles [2]: 1.31

Substance: Zvar(Q9A,N11E,Q40V,A42K,N43A,L44I)4 with an additional N-terminal cysteine (designed binder)
remaining IgG capacity Qb10 after six 4 h cycles [3]: 53.6 mg/mL
remaining IgG capacity after six 4 h cycles [3]: 95%
capacity retention relative to ref. after six 4 h cycles [4]: 1.67
remaining IgG capacity Qb10 after six 4 h cycles [5]: 56 mg/mL
remaining IgG capacity after six 4 h cycles [5]: 93%
remaining IgG capacity Qb10 after six 4 h cycles [6]: 44.2 mg/mL
remaining IgG capacity after six 4 h cycles [6]: 90%
initial IgG capacity Qb10 [7]: 60.3 mg/mL
capacity retention relative to ref. after six 4 h cycles ([8]; ligand content 7.2 mg/ml): 1.5
initial IgG capacity Qb10 [9]: 49 mg/mL
initial IgG capacity Qb10 [10]: 56.3 mg/mL

Substance: Zvar(Q9A,N11E,Q40V,A42K,N43A,L44I)6 (designed binder)
Qb10% 2.4 min ([11]; ligand content 6.5 mg/ml): 37 mg/mL
Qb10% 6 min ([11]; ligand content 6.5 mg/ml): 38 mg/mL
Qb10% 2.4 min ([11]; ligand content 10.4 mg/ml): 50 mg/mL
Qb10% 6 min ([11]; ligand content 10.4 mg/ml): 61 mg/mL
Qb10% 2.4 min [12]: 53 mg/mL
Qb10% 6 min [12]: 69 mg/mL
Qb10% 2.4 min [13]: 48 mg/mL
Qb10% 6 min [13]: 72 mg/mL
Qb10% 6 min [14]: 76 mg/mL
Qb10% 2.4 min [15]: 47 mg/mL
Qb10% 6 min [15]: 57 mg/mL
Qb10% 2.4 min [16]: 55 mg/mL
Qb10% 6 min [16]: 80 mg/mL
Qb10% 2.4 min [17]: 31 mg/mL
Qb10% 6 min [17]: 52 mg/mL
Qb10% 2.4 min [18]: 38 mg/mL
Qb10% 6 min [18]: 64 mg/mL
Qb10% 2.4 min [19]: 41 mg/mL
Qb10% 6 min [19]: 65 mg/mL
Qb10% 2.4 min [20]: 62 mg/mL
Qb10% 6 min [20]: 84 mg/mL
Qb10% 2.4 min [21]: 36 mg/mL
Qb10% 6 min [21]: 62 mg/mL
Qb10% 2.4 min [22]: 62 mg/mL
Qb10% 6 min [22]: 74 mg/mL
Qb10% 2.4 min [23]: 44 mg/mL
Qb10% 6 min [23]: 53 mg/mL
remaining capacity 100 cycles [1]: 87%
Qb10% 2.4 min [24]: 61 mg/mL
Qb10% 6 min [24]: 82 mg/mL
Qb10% 2.4 min [25]: 51 mg/mL
Qb10% 6 min [25]: 73 mg/mL
Qb10% 2.4 min [26]: 48 mg/mL
Qb10% 6 min [26]: 57 mg/mL
Qb10% 2.4 min [27]: 47 mg/mL
Qb10% 6 min [27]: 55 mg/mL
Qb10% 2.4 min [28]: 56 mg/mL
Qb10% 6 min [28]: 75 mg/mL
Qb10% 2.4 min [29]: 43 mg/mL
Qb10% 6 min [29]: 61 mg/mL
Qb10% 2.4 min [30]: 50 mg/mL
Qb10% 6 min [30]: 58 mg/mL
Qb10% 2.4 min [31]: 57 mg/mL
Qb10% 6 min [31]: 82 mg/mL
Qb10% 2.4 min [32]: 50 mg/mL
Qb10% 6 min [32]: 56 mg/mL
Qb10% 2.4 min [33]: 36 mg/mL
Qb10% 6 min [33]: 49 mg/mL
Qb10% 2.4 min [34]: 48 mg/mL
Qb10% 6 min [34]: 76 mg/mL
Qb10% 2.4 min [35]: 49 mg/mL
Qb10% 6 min [35]: 60 mg/mL
Qb10% 2.4 min [36]: 44 mg/mL
Qb10% 6 min [36]: 43 mg/mL
Qb10% 2.4 min [37]: 42 mg/mL
Qb10% 6 min [37]: 46 mg/mL
Qb10% 2.4 min [38]: 38 mg/mL
Qb10% 6 min [38]: 65 mg/mL
capacity relative to ref. 100 cycles [39]: 1.3
Qb10% 2.4 min [40]: 59 mg/mL
Qb10% 6 min [40]: 72 mg/mL
Qb10% 2.4 min [41]: 41 mg/mL
Qb10% 6 min [41]: 56 mg/mL
Qb10% 2.4 min [42]: 48 mg/mL
Qb10% 6 min [42]: 59 mg/mL
Qb10% 2.4 min [43]: 38 mg/mL
Qb10% 6 min [43]: 46 mg/mL
Qb10% 2.4 min [44]: 56 mg/mL
Qb10% 6 min [44]: 72 mg/mL
Qb10% 2.4 min [45]: 20 mg/mL
Qb10% 6 min [45]: 43 mg/mL
Qb10% 2.4 min [46]: 31 mg/mL
Qb10% 6 min [46]: 54 mg/mL

Results, then the substance that gave them:

remaining capacity 100 cycles [47]: 54%
remaining capacity 200 cycles [48]: 65%
remaining capacity 100 cycles [1]: 84%
capacity relative to ref. 100 cycles [49]: 1.25
capacity relative to ref. 200 cycles [49]: 1.81
capacity relative to ref. 300 cycles [49]: 3
remaining capacity 300 cycles [50]: 48%
capacity relative to ref. 100 cycles [51]: 2
Substance: Zvar(Q9A,N11E,Q40V,A42K,N43E,L44I)4 (designed binder)

remaining IgG capacity Qb10 after six 4 h cycles [52]: 52.5 mg/mL
remaining IgG capacity after six 4 h cycles [52]: 92%
initial IgG capacity Qb10 [53]: 56.9 mg/mL
capacity retention relative to ref. after six 4 h cycles [8]: 1.3
Substance: Zvar(Q9A,N11K,H18K,D37E,A42R)4 with an additional N-terminal cysteine (designed binder)
